Assays:
HLA-B*15:42 = assay: IEDB peptide-MHC binding, purified MHC/competitive/fluorescence; filed as Kd, often an IC50 or EC50 that approximates it; ≥ and ≤ were set here for values at or beyond the usual limits of such assays; conditions: source organism: Escherichia coli O139:H28 str. E24377A
HLA-B*40:13 = assay: as above; conditions: source organism: Escherichia coli O139:H28 str. E24377A
HLA-B*45:06 = assay: as above; conditions: source organism: Escherichia coli O139:H28 str. E24377A
HLA-A*32:07 = assay: as above; conditions: source organism: Escherichia coli O139:H28 str. E24377A
HLA-B*39:01 = assay: as above; conditions: source organism: Escherichia coli O139:H28 str. E24377A
HLA-B*83:01 = assay: as above; conditions: source organism: Escherichia coli O139:H28 str. E24377A
HLA-B*40:01 = assay: IEDB peptide-MHC binding, purified MHC/direct/fluorescence; filed as Kd, often an IC50 or EC50 that approximates it; ≥ and ≤ were set here for values at or beyond the usual limits of such assays; conditions: source organism: Escherichia coli O157:H7
HLA-A*02:01 = assay: as above; conditions: source organism: Escherichia coli O157:H7
HLA-A*31:01 = assay: as above; conditions: source organism: Escherichia coli O157:H7
HLA-A*01:01 = assay: as above; conditions: source organism: Escherichia coli O157:H7
HLA-A*69:01 = assay: as above; conditions: source organism: Escherichia coli O157:H7
HLA-B*27:05 = assay: as above; conditions: source organism: Escherichia coli O157:H7
HLA-B*07:02 = assay: as above; conditions: source organism: Escherichia coli O157:H7
HLA-B*15:01 = assay: as above; conditions: source organism: Escherichia coli O157:H7
HLA-A*11:01 = assay: as above; conditions: source organism: Escherichia coli O157:H7
HLA-B*18:01 = assay: as above; conditions: source organism: Escherichia coli O157:H7
HLA-A*68:02 = assay: as above; conditions: source organism: Escherichia coli O157:H7
HLA-B*48:01 = assay: as above; conditions: source organism: Escherichia coli O157:H7
HLA-B*15:17 = assay: as above; conditions: source organism: Escherichia coli O157:H7
HLA-B*58:01 = assay: as above; conditions: source organism: Escherichia coli O157:H7
HLA-A*03:01 = assay: as above; conditions: source organism: Escherichia coli O157:H7
HLA-B*57:01 = assay: as above; conditions: source organism: Escherichia coli O157:H7

REWGWRIPF
Kd (HLA-B*15:42): ≥ 5000 nM | Kd (HLA-B*40:13): 61.1 nM | Kd (HLA-B*45:06): ≥ 5000 nM | Kd (HLA-A*32:07): 13.5 nM | Kd (HLA-B*39:01): 135 nM | Kd (HLA-B*83:01): ≥ 5000 nM | Kd (HLA-B*40:01): ≤ 1 nM | Kd (HLA-A*02:01): ≥ 20000 nM | Kd (HLA-A*31:01): ≥ 20000 nM | Kd (HLA-A*01:01): ≥ 20000 nM | Kd (HLA-A*69:01): ≥ 20000 nM | Kd (HLA-B*27:05): 590 nM | Kd (HLA-B*07:02): ≥ 20000 nM | Kd (HLA-B*15:01): 45 nM | Kd (HLA-A*11:01): ≥ 20000 nM | Kd (HLA-B*18:01): ≤ 1 nM | Kd (HLA-A*68:02): ≥ 20000 nM | Kd (HLA-B*48:01): 149 nM | Kd (HLA-B*15:17): ≥ 20000 nM | Kd (HLA-B*58:01): ≥ 20000 nM | Kd (HLA-A*03:01): ≥ 20000 nM | Kd (HLA-B*57:01): ≥ 20000 nM

— the Immune Epitope Database (IEDB)
